Reference: patent US20250154284A1

Biological target: MASP-2-T1 (aa 1-414) (human) (UniProt O00187)
Test: ELISA, antibody titrated on truncated human MASP-2 T1 (aa 1-414)

- EC50 (read off the curve): 0.01 µg/mL
Substance: benchmark antibody narsoplimab
